Source: article PMC2713185

Target: TMR-PDZ(C338) domain of Dvl1 (mouse) (UniProt P51141)
Test: other fluorescence titration

Chain of UniProt P51141 (P51141 251-341): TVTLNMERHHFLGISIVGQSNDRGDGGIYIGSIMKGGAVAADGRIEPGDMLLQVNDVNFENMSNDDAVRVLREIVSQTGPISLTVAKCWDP

| Substance | Kd |
| --- | --- |
| tripeptide VWV | 2 µM |
| tripeptide VVV | 71 µM |
